Test results reported in US20210364527A1.

B1: PS611 (Bis-atClpS2-V1, Linker 3) (designed binder)
chain: MSDSPVDLKPKPKVKPKLERPKLYKVMLLNDDYTPMSFVTVVLKAVFRMSEDTGRRVMMTAHRFGSAVVVVCERDIAETKAKEATDLGKEAGFPLMFTTEPEEGSAGSAAGSGEFGSAGSAAGSGEFGSAGSAAGSGEFMSDSPVDLKPKPKVKPKLERPKLYKVMLLNDDYTPMSFVTVVLKAVFRMSEDTGRRVMMTAHRFGSAVVVVCERDIAETKAKEATDLGKEAGFPLMFTTEPEEGHHHHHHHHHHGGGSGGGSGGGSGLNDFFEAQKIEWHEGGGSGGGSGGGSGLNDFFEAQKIEWHE
B2: PS609 (Bis-atClpS2-V1, Linker 1) (designed binder)
chain: MSDSPVDLKPKPKVKPKLERPKLYKVMLLNDDYTPMSFVTVVLKAVFRMSEDTGRRVMMTAHRFGSAVVVVCERDIAETKAKEATDLGKEAGFPLMFTTEPEEGGGSGGGSGGGSGMSDSPVDLKPKPKVKPKLERPKLYKVMLLNDDYTPMSFVTVVLKAVFRMSEDTGRRVMMTAHRFGSAVVVVCERDIAETKAKEATDLGKEAGFPLMFTTEPEEGHHHHHHHHHHGGGSGGGSGGGSGLNDFFEAQKIEWHEGGGSGGGSGGGSGLNDFFEAQKIEWHE

Biological target: FA peptide (N-terminal phenylalanine, penultimate alanine; rest of sequence not given)
Test: fluorescence polarization

| Binder | Kd [nM] |
| --- | --- |
| B1 | 137 |
| B2 | 221 |
